Assay results from patent US20150274802A1.
“And” between values parts separate entries of the source, which are not always exact repeats. Equal values may be shown once.

Assays:
[1] = target: human insulin receptor (human) (UniProt P06213); experiment: competition SPA, [125I]insulin
[2] = target: human IGF-1 receptor (human) (UniProt P08069); experiment: competition SPA, [125I]IGF-1
[3] = target: type B insulin receptor (UniProt P06213); experiment: cell-based or functional assay
[4] = target: human IGF-1 receptor (human) (UniProt P08069); experiment: cell-based or functional assay
[5] = target: type A insulin receptor (UniProt P06213); experiment: cell-based or functional assay

| Substance | % insulin (in test) [1] | % native insulin activity (0.6 nM) [1] | IC50 [1] | % IGF-1 (in test) [2] [%] | % native IGF-1 activity (0.55 nM) [2] [%] | % Insulin Activity (in vitro, assay not named) [3] [%] | % Insulin Activity (in vitro, assay not named) [4] [%] | % Insulin Activity (in vitro, assay not named) [5] [%] |
| --- | --- | --- | --- | --- | --- | --- | --- | --- |
| IGF-1 A:In (1-17)-IGF-1 B(18-30) (from UniProt P05019 18-30) (ligand) | 11.3% and 20.1% | 22.5% and 24.2% | 2.67 nM and 2.48 nM | 0.9 | 0.9 |  |  |  |
| MIU-67: B2, C8-PEG10K di-PEGylated MIU-35 (ligand) |  |  |  |  |  | 0.1 | < 0.1 | 0.2 |
| MIU-68: B2, B22-PEG10K di-PEGylated MIU-35 (ligand) |  |  |  |  |  | 0.1 | < 0.1 | 0.4 |
| MIU-69: B2, A14-PEG10K di-PEGylated MIU-35 (ligand) |  |  |  |  |  | 0.5 | < 0.1 | 1 |
